Key:
[1] = biological target: TAZ1 (transcriptional adaptor zinc-binding 1) domain of CREB binding protein (CBP) (human) (UniProt Q92793); test: stopped-flow fluorimetry (association kinetics); TAZ1 constant at 0.5-0.9 µM, Hif-1α CAD variant varied 1-15 µM; Trp-418 fluorescence of TAZ1; 293 K; 20 mM HEPES pH 6.9, 1 mM TCEP, 190 mM NaCl; apparent kon from the fast phase; Kd = koff^app/kon^app with koff^app from the displacement experiments
[2] = biological target: TAZ1 (transcriptional adaptor zinc-binding 1) domain of CREB binding protein (CBP) (human) (UniProt Q92793); test: stopped-flow fluorimetry (displacement); complex TAZ1/Hif-1α CAD variant (0.75 µM/0.5 µM) mixed with excess TAZ1 W418Y (10-50 µM); kobs at excess equals apparent koff; 293 K; 20 mM HEPES pH 6.9, 1 mM TCEP, 190 mM NaCl
[3] = biological target: TAZ1 (transcriptional adaptor zinc-binding 1) domain of CREB binding protein (CBP) (human) (UniProt Q92793); test: ITC; 15 µM TAZ1 in the cell, 149 µM Hif-1α CAD (L813A) in the syringe; 293 K; 20 mM HEPES pH 6.9, 1 mM TCEP, 190 mM NaCl; one-to-one model

C-terminal activation domain of hypoxia inducible factor 1α (Hif-1α CAD), wild type, sequence (Q16665 776-826): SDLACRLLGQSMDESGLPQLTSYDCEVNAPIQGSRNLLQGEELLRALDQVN
Hif-1α CAD hydroxylated at Asn-803, sequence (Q16665 776-826): as above

| Substance | Kd [1] [nM] | kon [1] [M⁻¹ s⁻¹] | koff [2] [s⁻¹] | Kd [3] [nM] |
| --- | --- | --- | --- | --- |
| C-terminal activation domain of hypoxia inducible factor 1α (Hif-1α CAD), wild type (from UniProt Q16665 776-826) (domain or fragment) | 3.36 | 8.83e+06 | 0.0297 |  |
| Hif-1α CAD V802A (from UniProt Q16665 776-826) (domain or fragment) | 13.7 | 7.28e+06 | 0.0995 |  |
| Hif-1α CAD hydroxylated at Asn-803 (from UniProt Q16665 776-826) (domain or fragment) | 172 | 7.7e+06 | 1.32 |  |
| Hif-1α CAD L792A (from UniProt Q16665 776-826) (domain or fragment) | 160 | 5.75e+06 | 0.92 |  |
| Hif-1α CAD L795A (from UniProt Q16665 776-826) (domain or fragment) | 1100 | 6.12e+06 | 6.74 |  |
| Hif-1α CAD L813A (from UniProt Q16665 776-826) (domain or fragment) | 137 | 8.52e+06 | 1.17 | 144 |
| Hif-1α CAD T796S (from UniProt Q16665 776-826) (domain or fragment) | 3.23 | 8.27e+06 | 0.0267 |  |
| Hif-1α CAD L778A (from UniProt Q16665 776-826) (domain or fragment) | 3.65 | 8.06e+06 | 0.0294 |  |
| Hif-1α CAD C800A (from UniProt Q16665 776-826) (domain or fragment) | 17.7 | 6.55e+06 | 0.116 |  |
| Hif-1α CAD L812A (from UniProt Q16665 776-826) (domain or fragment) | 71.5 | 7.12e+06 | 0.509 |  |

Results, then the substance that gave them:

| Kd [1] [nM] | kon [1] [M⁻¹ s⁻¹] | koff [2] [s⁻¹] | Kd [3] [nM] | Substance |
| --- | --- | --- | --- | --- |
| 3.78 | 9.56e+06 | 0.0361 |  | Hif-1α CAD C780A (from UniProt Q16665 776-826) (domain or fragment) |
| 4.56 | 7.36e+06 | 0.0336 |  | Hif-1α CAD L782A (from UniProt Q16665 776-826) (domain or fragment) |
| 205 | 6.23e+06 | 1.27 |  | Hif-1α CAD L818A (from UniProt Q16665 776-826) (domain or fragment) |
| 23.1 | 6.1e+06 | 0.141 |  | Hif-1α CAD L819A (from UniProt Q16665 776-826) (domain or fragment) |
| 4.83 | 6.7e+06 | 0.0324 |  | Hif-1α CAD M787A (from UniProt Q16665 776-826) (domain or fragment) |
| 3.6 | 9.62e+06 | 0.0346 |  | Hif-1α CAD L783A (from UniProt Q16665 776-826) (domain or fragment) |
| 2.12 | 1.04e+07 | 0.022 |  | Hif-1α CAD V825A (from UniProt Q16665 776-826) (domain or fragment) |
| 5.93 | 9.73e+06 | 0.0577 |  | Hif-1α CAD I806V (from UniProt Q16665 776-826) (domain or fragment) |
